Laboratory results taken from patent US20100317541A1.

Target: α3 subunit isoform of Na, K-ATPase (human) (UniProt P13637)
Assay: Western blot of control lysate, antibody at 1:2000, chemiluminescence, band density by Alpha DigiDoc 1000

Average density	Substance
45200	α3 monoclonal antibody from Affinity Bioreagents (Golden, Colo.)
44600	α3 monoclonal antibody from Sigma (St Louis, Mo.)
41100	α3 monoclonal antibody from Novus (Littleton, Colo.)
